Results: the supplement of paper PMC12042874
± gives the uncertainty stated by the source.

assay: amyloid nucleation score (Sup35N fusion, yeast selection) (log enrichment); library NNK2; higher = more nucleation; inactive = no reads after selection
How it was run: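 Using DiMSum, nucleation scores were taken as the log enrichment of output over input reads, centred on the mode score of non-aggregating sequences. The input and output reads came from Illumina sequencing of plasmid inserts, with sequences under 100 input reads excluded. The yeast were psi-negative, expressed Sup35N fused to peptides of 20 random codons, were induced with 100 μM copper sulfate for 24 hours, and were grown 7 days at 30°C on medium lacking adenine and uracil.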

| Substance | amyloid nucleation score |
| --- | --- |
| SYLLSKMQHFLMVTK | -1.32 ± 0.53 |
| HGDAKFGSVVGAFQDLYS | 1.29 ± 0.39 |
| YINSMLSSYFDSLWEGSKSR | -0.109 ± 0.27 |
| INCFSLLEPLEYFSRLCQQR | -0.276 ± 0.55 |
| FELLPTR | 3.3 ± 0.079 |
| GLLVLLLETCWKLVSFDLRK | 0.561 ± 0.39 |
| FINNNNGAPSRVHPTGALTR | -0.357 ± 0.53 |
| VERFLPVCFIPLISKRWTMY | 0.283 ± 0.54 |
| EFTAFYGQEFKW | 0.182 ± 1.1 |
| FGLTRPEKWEHLHVYCNYMS | 0.615 ± 0.38 |
| RVKEMWGVYVGQHGYTANAL | 0.842 ± 0.47 |
| QSPSIRTCTYYGTYRRLKKG | inactive |
| MWVPFASWLCK | -0.08 ± 0.5 |
| YTRWWLWWGFNNCWRYWSEK | -0.96 ± 0.55 |
| VEFSLSCHNMIFYVLD | 6.762 ± 0.028 |
| LEVKEVSEFLRLTYMYL | -1.67 ± 0.62 |
| CDGTLCWKPGWYGDQKFERR | 1.32 ± 0.36 |
| LNALIHYVER | 0.842 ± 0.42 |
| IYWLSYQTMVPIQAVYIHRC | -0.087 ± 0.42 |
| MGLSAVQVFSRRCSFSGKWC | inactive |
| NVIMMDLWVDLAFKSLGYG | 6.291 ± 0.046 |
| GNWMRYIFSKWARLWGWKTY | inactive |
| KLIHWIILVWFSSGTLPCND | -0.133 ± 0.5 |
| HWMVGKV | 0.164 ± 0.28 |
| SGLEQRGMFRRKNLPIKWCL | 3.89 ± 0.041 |

| Substance | amyloid nucleation score |
| --- | --- |
| VHLGRV | -0.678 ± 0.48 |
| SVGSGPVSSLRRKHDRGDTP | 0.253 ± 0.35 |
| GASFMSRNIRTWMTMWCDLK | 0.012 ± 0.23 |
| SFDVYVEARLMDSVTGLDRI | 0.437 ± 0.32 |
| VNFRVGCLVSYMNVK | 2.6 ± 0.13 |
| RSFEVKLFARSLKHIPDLTP | 1.02 ± 0.35 |
| GLMAWR | 0.154 ± 0.37 |
| WTCVEVHAVYCFGSVDELVL | 8.556 ± 0.058 |
| PGIMNVPS | 0.456 ± 0.32 |
| CIGSLNVAVW | 0.152 ± 0.21 |
| EFMYKQCRYIVTPYGLVVSR | -0.557 ± 1.1 |
| ASDVKGSANDVVGFWVLPDQ | 5.907 ± 0.049 |
| LYAVRPLTVGTKCYMMRGLL | -1.59 ± 0.49 |
| FKRDLMLYFCCSWCRKVCVY | -0.432 ± 0.34 |
| MKGEMF | -0.345 ± 0.28 |
| VFPDSIGN | inactive |
| HDYFTYT | 4.83 ± 0.059 |
| FLSYFCIIFSTNLKLSSK | 2.1 ± 0.15 |
| TCWKDYIYIFALVNYSGHRA | inactive |
| MLLSCYFVVNE | 6.37 ± 0.072 |
| PLLTMWDLDSGVSGFCQVRS | -0.477 ± 0.35 |
| LFNGECGICDQEKYLVRQTV | 0.065 ± 1.1 |
| RFYGVY | inactive |
| GDFVGMLYNRCGHHMVIILT | -0.731 ± 0.35 |
| SSRQSW | 0.082 ± 1 |

| Substance | amyloid nucleation score |
| --- | --- |
| SRPFMIYREYVASSIVSNQL | -0.606 ± 0.29 |
| NLVVCGNISGCLCYDYSFGK | 8.187 ± 0.032 |
| RRRRSGLCRAYVNVLNARTR | 0.79 ± 0.41 |
| SREINITLGKTFYPSRMYGV | 4.48 ± 0.05 |
| STSRCMRLHWGTFNYCSNIF | 0.721 ± 0.35 |
| WGVFWLPH | -0.807 ± 0.56 |
| DYLRYRYSMFCTCPAVTQS | -0.567 ± 0.78 |
| DDSFML | -0.134 ± 1.1 |
| TLCRGTVLVAFGSPNITPSK | 3.89 ± 0.059 |
| WCLMVGFMFMCRYDGNQSDG | 2.98 ± 0.051 |
| IRVGICAVDGPACKRLYSCM | -0.176 ± 0.35 |
| WWDTRRHVQCCSAEAIDFME | 1.3 ± 0.47 |
| SKLEENIPKLVTRYQCGTGR | 0.143 ± 0.37 |
| IANWSKYSASTCLVMTHAMA | -0.302 ± 0.28 |
| YRAAWSSAAG | -0.137 ± 1.1 |
| RASARLVCTFYVLTERG | 4.17 ± 0.064 |
| YFMVHIMGTVKIGRW | 3.13 ± 0.098 |
| CVLDLNVMDGGLL | -1.26 ± 0.38 |
| LITQKHFTRVTNMPIRLCSL | -0.491 ± 0.41 |
| ITQRFKTWRCGGGDEVRQAN | 0.239 ± 0.49 |
| WYALNYTIPEPYWT | 0.881 ± 0.48 |
| IEGDLFVRLRLRKLSQLFKA | 0.196 ± 0.77 |
| VVAFRMSSDNAHSHDLPVPW | 5.59 ± 0.073 |
| YAPGVLLSSMNDMAEYKGGI | -0.14 ± 0.28 |
| DFILGYVDS | -0.65 ± 1 |

| Substance | amyloid nucleation score |
| --- | --- |
| LKGQYWVLRKGGCEGGLSAG | 1.81 ± 0.45 |
| DRYHDTMAMKARVWSDRCKS | 1.94 ± 0.34 |
| VTYLMCLWAGVARG | -0.324 ± 1.1 |
| GEINENGKLCGGRAQGTGTY | -0.392 ± 0.63 |
| NRFQYGCNSGSMTVWGALWF | 0.706 ± 0.81 |
| SNYVFTNRGLIFRDFRVSDE | 5.56 ± 0.086 |
| HRTLFKGPSWLPKRRERAIL | -0.097 ± 0.79 |
| IGQRLCYCVCWRSSCGVVWQ | 1.46 ± 0.36 |
| RWTKGCDSNCIWF | -0.502 ± 0.25 |
| FVLMMDYEIIFLN | 4.52 ± 0.071 |
| QNNKILFWQ | 0.039 ± 0.31 |
| LRVMSSISDDNAQEFDDFCV | 3.75 ± 0.062 |
| RVGFNNRNVVD | 0.266 ± 0.56 |
| DLSSALRAMRSYSHLSTVGI | inactive |
| GFGCPA | -0.165 ± 1 |
| DYVSRKCFRDKWSERSSCRG | 0.085 ± 0.37 |
| TSYYLDL | -1.31 ± 0.75 |
| SLEKMWCRLFKGSQT | 1.11 ± 0.12 |
| FMIMNYNQLCINRCLNGGRV | 9.059 ± 0.044 |
| LCPLTHFFVFEVYFSDPYRE | 5.69 ± 0.075 |
| LKVAVLVSGLGLA | 0.54 ± 0.46 |
| SGIALFKPSCSVGVAQFDYE | -0.024 ± 0.45 |
| SHNVGYCSVSCSCTWWHSCV | inactive |
| DVRHQWFEMVRVVIICKPVN | -0.149 ± 0.42 |
| TAFSNRCLIQSQKSYLQFSV | inactive |

| Substance | amyloid nucleation score |
| --- | --- |
| LYDFCVSYVSQNGLRLFVRT | -0.727 ± 0.45 |
| FGLQMQAWREKDHQENGLIQ | 0.798 ± 0.31 |
| LLFIICTDSFRLPTANGELY | -1.17 ± 0.41 |
| QNLCDCCKYQICSVLFMGHA | 4.33 ± 0.082 |
| IFCYPQCVGPRSLCVGGNME | -0.72 ± 0.39 |
| LFGLNFNLSNNLFMFFSYTQ | 3.46 ± 0.082 |
| FSLGQKLLFCFCEVCWLNVA | 2.97 ± 0.1 |
| SISTSTGLRRHPYNGPKIGM | -0.221 ± 0.32 |
| NSFVAIKCIV | -0.023 ± 0.33 |
| KRSVAVFRRCV | 0.817 ± 0.44 |
| FVFYSEEGLGHDLSNFTGGI | inactive |
| SPKRFTCSGDCSR | -0.573 ± 0.78 |
| RDLLIGDDI | -0.983 ± 0.44 |
| RFFCLWFSWKNLGFNVKRAV | 5.02 ± 0.082 |
| NQTCTE | 0.7 ± 0.66 |
| FLVIVQPSHFGCSKSNKGVW | 0.453 ± 0.66 |
| MLCRNIHRCKMHREPLGVFH | 0.578 ± 0.81 |
| LWVSSSLSL | -0.74 ± 0.45 |
| SMVFFGPFIFYVANPITSFV | 5.54 ± 0.068 |
| WGCCGDLVYAIS | 0.194 ± 0.62 |
| DSDLLVTHMVMLYKHVE | 3.79 ± 0.065 |
| SALCNDVVRPMMVFSENCAK | 0.225 ± 0.31 |
| ISECR | -0.432 ± 1.1 |
| ESYIWMLRGHMLCKDEVMNV | -0.611 ± 0.74 |
| YLVGCKDSRTSLSSLICIRL | 8.842 ± 0.03 |

| Substance | amyloid nucleation score |
| --- | --- |
| YMIFCLSIYEDDEALGPTER | -0.287 ± 0.21 |
| DGVCKFQELMSFPGKLYS | -0.447 ± 0.5 |
| GYAADLWWVLLFYERLVSGD | 0.026 ± 0.49 |
| HNLCGYLLVSVAWVLWWIRR | 2.61 ± 0.11 |
| SCRNCSQSVSLGGSSKPRQV | 0.455 ± 0.4 |
| YEYVSYCVSDFRYLLQTV | 0.436 ± 0.66 |
| RPKTEDCGLNLSTVLNQVGH | 0.111 ± 0.19 |
| MIISTVMSGMNANSLVVWAY | 0.375 ± 0.21 |
| CRPGRLYVQIIFISMIRDNR | -0.513 ± 0.48 |
| LAIDIMPFPCDTLS | -0.289 ± 0.26 |
| WCWLEYCCTIDSLIFLFEN | 4.09 ± 0.12 |
| GISCYMAPSGCRHNSVMSLW | 0.611 ± 0.5 |
| VYKYNISFLEPKHESQAWNK | 0.042 ± 0.63 |
| SGILVKLVMIFSWKGGGV | 2.96 ± 0.066 |
| VRSLN | 0.058 ± 0.6 |
| CLYFFLSYRSCCINVFLGFC | -0.326 ± 1 |
| NMPEFC | 0.283 ± 0.21 |
| YANDFLRLVHVWFREVIIKL | -0.398 ± 1 |
| LQCYPWIYGGSGHPYRFWNL | -0.331 ± 0.8 |
| IIRRF | 0.28 ± 0.33 |
| FLMANSFFCNCFYTVYFTHC | 4.52 ± 0.047 |
| TKDERFV | 0.218 ± 0.29 |
| RVFFTVCGMHTGSSKKLAGL | 1.23 ± 0.21 |
| FYSFGGNGDYSPKSGHWS | inactive |
| LWLVYSESWSMYAMS | 1.19 ± 0.12 |

| Substance | amyloid nucleation score |
| --- | --- |
| DSSIDRWF | 1.15 ± 0.22 |
| LWFGRSCGFGIGVYYRRPSL | -0.213 ± 0.48 |
| WVASSSKQRTHLCSGVKWSV | 0.539 ± 0.56 |
| KTNSIPYSMVS | -0.113 ± 1.1 |
| GVTPYCKRHV | -1.14 ± 0.78 |
| AEVCEVRTFVPYSCLFYSST | 5.22 ± 0.06 |
| FLIRDLAMHSSCSGSAIMIT | -0.713 ± 0.37 |
| DQLVQGYGNTGWQLGYRMAG | 5.35 ± 0.056 |
| VRDLTCSNNITILFMHW | 6.13 ± 0.079 |
| MVLLCIFQ | 8.273 ± 0.064 |
| RGANNGMCYFMTRRKWLLMV | 0.813 ± 0.56 |
| RLTDLVSMVSLNPLYFMWSS | -0.08 ± 0.3 |
| ISTMSGPFVSRLWYSAYNTA | -0.345 ± 0.64 |
| FCRIAATTRHMHGGLVGRWS | 1.04 ± 0.68 |
| DMSSHGGWFRPRRFLEISPL | 0.183 ± 1 |
| TGHFKKYVKGEGADDSNCAL | 0.347 ± 0.29 |
| CMAIDLPVHYS | 0.005 ± 0.55 |
| DSVIWVCIVWRRSSSTMCVM | 1.01 ± 0.38 |
| NTAVSYFNHKSVAFFYFCDL | 4.94 ± 0.064 |
| VGWHPPVLTEYTMDQTAYTT | 1.39 ± 0.29 |
| DKREQRLRQSQILMCGDGGF | 0.157 ± 0.76 |
